Four molecules from paper PMC11289442 (Nature Communications, 2024) can be followed below.

What all share (test): SDS-PAGE without heat denaturation and immunoblot
For orientation: A western blot detects proteins with antibodies after separation by electrophoresis.

Data set [1] has as its target CFP-OsUVR8a (in transgenic Arabidopsis uvr8-6) (rice (Oryza sativa)).
Data set [2] concerns the target CFP-OsUVR8b (in transgenic Arabidopsis uvr8-6) (rice (Oryza sativa)).
Data set [3] concerns the molecule itself.

The term stoichiometry N denotes the number of molecules, sites or subunits per partner or assembly. For the molecule “CFP-OsUVR8a (in transgenic Arabidopsis uvr8-6) (natural protein)”, the stoichiometry N in data set [1] worked out at 2.
Regarding “CFP-OsUVR8b (in transgenic Arabidopsis uvr8-6) (natural protein)”, the stoichiometry N in data set [2] is 2.

B1: CFP-OsUVR8b (in transgenic rice) (natural protein)
chain: MDAVMSAADDAGAASGREDPPPAVVLVSAGASHSVALLAGNVLCSWGRGEDGQLGHGDAEDRLVPTVLSGFDAAAPGITSVICGADHTTAYSEDEQQVYSWGWGDFGRLGHGNSSDVFTPQPVKALQGIKIKQIACGDSHCLAVTMAGEVQSWGRNQNGQLGLGTTEDSLLPQKIQSFEGVCVKMIAAGAEHTAAVTEDGDLYGWGWGRYGNLGLGDRNDRLVPEKVSSVEGEKMVLIACGWRHTITVSSSGSLYTYGWSKYGQLGHGDFEDHLVPHKLEALKDSSISQISGGWRHTMALTSDGKLYGWGWNKFGQVGVGDTDDHCFPVQVKFPEDQKVAQVACGWRHTLAFTEKKNVFSWGRGTSGQLGHGEIVDRNKPVMIDALSPDGPGCKKLEPSTAVPFAAKVWVSPSERYAIVPDEKVPNSGEGTARGNGADANVPENDVKRMRVHS
Consider B1, for which the “stoichiometry N” value in data set [3] is 2.

B2: CFP-OsUVR8a (in transgenic rice) (natural protein)
chain: MHSTGMEMEVEVAGDDEAVPEAPERSVVLISAGASHSVALLSGGVVCSWGRGEDGQLGHGDAEDRPVPTVLTAAFDDAPGGVASVVICGADHTTAYSDEELQLYSWGWGDFGRLGHGNSSDVFNPQPIQALQGVRITQIACGDSHCLAVTVAGHVHSWGRNQNGQLGLGNTEDSLLPQKIQAFEGVRVKMIAAGAEHTAAVTEDGDLYGWGWGRYGNLGLGDRDDRLIPEKVSSVNGQKMVLVACGWRHTITVSSSGSIYTYGWSKYGQLGHGDFEDHLVPHKLEALKDTTISQISGGWRHTMALAADGKLYGWGWNKFGQVGVGDNEDHCSPVQVNFPNEQKVVQVACGWRHTLALTEAKNVFSWGRGTSGQLGHGEIVDRNIPKMIDALSSDGSACKQLESSKAVPMSAKVWVSPSERYAIVPDEKAGKGIPAGNGTETHVPQGDVKRMRV
For B2, the “stoichiometry N” value in data set [3] turned out to be 2.
